The target in this data set is GST-SBP-SLBP (stem-loop binding protein) (Homo sapiens, UniProt Q14493 1-270). Put plainly: targeted RNA Bind-n-Seq; RBNS binding buffer: 25 mM Tris pH 7.5, 150 mM KCl, 3 mM MgCl2, 0.1% Tween, 0.5 mg/mL BSA, 1 mM DTT; 27 nM protein, 750 pM RNA pool; temperature not stated; high values mean tight binding. To be noted: protein: recombinant; tags: N-terminal GST and SBP (pGEX6P1-SBP). The method, boiled down: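 The protein, carrying a GST-SBP tag, was produced in Rosetta(DE3) pLysS E. coli, purified on glutathione, and mixed at 27 nM with 750 pM of a designed RNA oligo pool made by T7 transcription in RBNS binding buffer. RNA that bound was reverse transcribed using a barcoded primer of 10 nucleotides, amplified by PCR and sequenced on a MiSeq with 200-cycle paired-end reads. FLASH joined the reads, HISAT2 aligned them, and they were collapsed by barcode before the binding signal was taken as the DEseq binary-logarithm fold change of read counts for each sequence.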

B1: consensus (structured_RNA)
RNA: GGUCACGUCUCAAUCAACUCCCAAAGGCCCUUUUCAGGGCCACCCAUCAACAGCUCGCAGUCAAG
For B1, the binding signal was found to be 3.92 ± 0.166 log2 fold change.

B2: consensus (structured_RNA)
RNA: GGUCACGUCUCAAUCAACUCCCAAAGGCUUUUCUAAGGGCCACCCAUCAACAGCUCGCAGUCAAG
As for B2, the binding signal came out at 1.52 ± 0.156 log2 fold change.

B3: consensus (structured_RNA)
RNA: GGUCACGUCUCAAUCAACUCCCAAAGGCUUUUCUAAGAGCCACCCAUCAACAGCUCGCAGUCAAG
With B3, the binding signal amounted to 1.33 ± 0.16 log2 fold change.

B4: consensus (structured_RNA)
RNA: GGUCACGUCUCAAUCAACUCCCAAAGGUUCUUCUUAGGACCACCCAUCAACAGCUCGCAGUCAAG
As to B4, the binding signal is 2.26 ± 0.144 log2 fold change.

B5: consensus (structured_RNA)
RNA: GGUCACGUCUCAAUCAACUCCCAAAGGUCUUUCUAAGGGCCACCCAUCAACAGCUCGCAGUCAAG
As for B5, the binding signal amounted to 1.09 ± 0.185 log2 fold change.

B6: consensus (structured_RNA)
RNA: GGUCACGUCUCAAUCAACUCCCAAAGGCUUUUUUUAGGGCCACCCAUCAACAGCUCGCAGUCAAG
Turning to B6, the binding signal was 1.3 ± 0.179 log2 fold change.

B7: consensus (structured_RNA)
RNA: GGUCACGUCUCAAUCAACUCCCAAAGGCCUUUUUAAGGGCCACCCAUCAACAGCUCGCAGUCAAG
Consider B7, for which the binding signal amounted to 2.24 ± 0.139 log2 fold change.

B8: consensus (structured_RNA)
RNA: GGUCACGUCUCAAUCAACUCCCAAAGGUCUUUCUAAGGACCACCCAUCAACAGCUCGCAGUCAAG
B8: the binding signal was found to be 1.6 ± 0.134 log2 fold change.

B9: consensus (structured_RNA)
RNA: GGUCACGUCUCAAUCAACUCCCAAAGGUUUUUCUCAAAGCCACCCAUCAACAGCUCGCAGUCAAG
For the molecule B9, the binding signal worked out at 2.22 ± 0.14 log2 fold change.

B10: consensus (structured_RNA)
RNA: GGUCACGUCUCAAUCAACUCCCAAAGGCCUUUCUAAGGGCCACCCAUCAACAGCUCGCAGUCAAG
For the molecule B10, the binding signal is 2.22 ± 0.143 log2 fold change.

B11: consensus (structured_RNA)
RNA: GGUCACGUCUCAAUCAACUCCCAAAGGUCCUUCUGAGGGCCACCCAUCAACAGCUCGCAGUCAAG
Consider B11, for which the binding signal came to 2.11 ± 0.151 log2 fold change.

B12: consensus (structured_RNA)
RNA: GGUCACGUCUCAAUCAACUCCCAAAGGUCUUUCUGAAGGCCACCCAUCAACAGCUCGCAGUCAAG
B12: the binding signal turned out to be 2.15 ± 0.13 log2 fold change.

B13: consensus (structured_RNA)
RNA: GGUCACGUCUCAAUCAACUCCCAAAGGCUUUUCUCAGGGCCACCCAUCAACAGCUCGCAGUCAAG
In the case of B13, the binding signal was found to be 1.31 ± 0.138 log2 fold change.

B14: consensus (structured_RNA)
RNA: GGUCACGUCUCAAUCAACUCCCAAAGGUCCUUUUAAGGACCACCCAUCAACAGCUCGCAGUCAAG
In the case of B14, the binding signal was determined as 3.61 ± 0.128 log2 fold change.

B15: consensus (structured_RNA)
RNA: GGUCACGUCUCAAUCAACUCCCAAAGGCUCUUUUCAGGGCCACCCAUCAACAGCUCGCAGUCAAG
Consider B15, for which the binding signal was 3.57 ± 0.122 log2 fold change.

B16: consensus (structured_RNA)
RNA: GGUCACGUCUCAAUCAACUCCCAAAGGCUUUUUUCAGAGCCACCCAUCAACAGCUCGCAGUCAAG
Turning to B16, the binding signal turned out to be 1.75 ± 0.155 log2 fold change.

B17: consensus (structured_RNA)
RNA: GGUCACGUCUCAAUCAACUCCCAAAGGUCUUUUUCAGGACCACCCAUCAACAGCUCGCAGUCAAG
As to B17, the binding signal stood at 1.9 ± 0.145 log2 fold change.

B18: consensus (structured_RNA)
RNA: GGUCACGUCUCAAUCAACUCCCAAAGGCUUUUUUAAGGGCCACCCAUCAACAGCUCGCAGUCAAG
For B18, the binding signal worked out at 1.95 ± 0.161 log2 fold change.

B19: consensus (structured_RNA)
RNA: GGUCACGUCUCAAUCAACUCCCAAAGGUCUUUUUCAGGGCCACCCAUCAACAGCUCGCAGUCAAG
As for B19, the binding signal was 1.25 ± 0.15 log2 fold change.

B20: consensus (structured_RNA)
RNA: GGUCACGUCUCAAUCAACUCCCAAAGGCCUUUCUCAGGGCCACCCAUCAACAGCUCGCAGUCAAG
In the case of B20, the binding signal is 1.93 ± 0.129 log2 fold change.

B21: consensus (structured_RNA)
RNA: GGUCACGUCUCAAUCAACUCCCAAAGGCCUUUCUUAGGGCCACCCAUCAACAGCUCGCAGUCAAG
B21: the binding signal turned out to be 1.28 ± 0.157 log2 fold change.

B22: consensus (structured_RNA)
RNA: GGUCACGUCUCAAUCAACUCCCAAAGGCUCUUCUGAGGGCCACCCAUCAACAGCUCGCAGUCAAG
Turning to B22, the binding signal was 2.28 ± 0.154 log2 fold change.

B23: consensus (structured_RNA)
RNA: GGUCACGUCUCAAUCAACUCCCAAAGGCCUUUUUUAAGGCCACCCAUCAACAGCUCGCAGUCAAG
Consider B23, for which the binding signal was found to be 3.59 ± 0.129 log2 fold change.

B24: consensus (structured_RNA)
RNA: GGUCACGUCUCAAUCAACUCCCAAAGGUUUUUUUUAAAGCCACCCAUCAACAGCUCGCAGUCAAG
Take B24: the binding signal stood at 2.23 ± 0.157 log2 fold change.

B25: consensus (structured_RNA)
RNA: GGUCACGUCUCAAUCAACUCCCAAAGGUUCUUUUUAGGGCCACCCAUCAACAGCUCGCAGUCAAG
With B25, the binding signal is 2.15 ± 0.148 log2 fold change.

B26: consensus (structured_RNA)
RNA: GGUCACGUCUCAAUCAACUCCCAAAGGCCUUUCUCAAGGCCACCCAUCAACAGCUCGCAGUCAAG
For the molecule B26, the binding signal is 3.84 ± 0.117 log2 fold change.

B27: consensus (structured_RNA)
RNA: GGUCACGUCUCAAUCAACUCCCAAAGGCCUUUUUCAGGGCCACCCAUCAACAGCUCGCAGUCAAG
As for B27, the binding signal amounted to 2.4 ± 0.137 log2 fold change.

B28: consensus (structured_RNA)
RNA: GGUCACGUCUCAAUCAACUCCCAAAGGUUUUUUUGAAAGCCACCCAUCAACAGCUCGCAGUCAAG
As to B28, the binding signal turned out to be 1.56 ± 0.147 log2 fold change.

B29: consensus (structured_RNA)
RNA: GGUCACGUCUCAAUCAACUCCCAAAGGCUUUUCUGAAGGCCACCCAUCAACAGCUCGCAGUCAAG
With B29, the binding signal came to 2 ± 0.133 log2 fold change.

B30: consensus (structured_RNA)
RNA: GGUCACGUCUCAAUCAACUCCCAAAGGUCUUUCUCAGGACCACCCAUCAACAGCUCGCAGUCAAG
Take B30: the binding signal was 1.31 ± 0.141 log2 fold change.

B31: consensus (structured_RNA)
RNA: GGUCACGUCUCAAUCAACUCCCAAAGGCUUUUUUCAGGGCCACCCAUCAACAGCUCGCAGUCAAG
For the molecule B31, the binding signal was determined as 1.99 ± 0.171 log2 fold change.

B32: consensus (structured_RNA)
RNA: GGUCACGUCUCAAUCAACUCCCAAAGGUCUUUUUAAGGACCACCCAUCAACAGCUCGCAGUCAAG
With B32, the binding signal is 1.91 ± 0.158 log2 fold change.

B33: consensus (structured_RNA)
RNA: GGUCACGUCUCAAUCAACUCCCAAAGGCCUUUUUGAGGGCCACCCAUCAACAGCUCGCAGUCAAG
In the case of B33, the binding signal worked out at 1.42 ± 0.169 log2 fold change.

B34: consensus (structured_RNA)
RNA: GGUCACGUCUCAAUCAACUCCCAAAGGUUUUUCUUAAAGCCACCCAUCAACAGCUCGCAGUCAAG
As for B34, the binding signal stood at 1.97 ± 0.127 log2 fold change.

B35: consensus (structured_RNA)
RNA: GGUCACGUCUCAAUCAACUCCCAAAGGUCUUUUUUAGGACCACCCAUCAACAGCUCGCAGUCAAG
As to B35, the binding signal stood at 0.994 ± 0.148 log2 fold change.

B36: consensus (structured_RNA)
RNA: GGUCACGUCUCAAUCAACUCCCAAAGGCUUUUUUAAGAGCCACCCAUCAACAGCUCGCAGUCAAG
Regarding B36, the binding signal came out at 1.64 ± 0.15 log2 fold change.

B37: consensus (structured_RNA)
RNA: GGUCACGUCUCAAUCAACUCCCAAAGGUUUUUUUGAAAACCACCCAUCAACAGCUCGCAGUCAAG
Consider B37, for which the binding signal amounted to 2.28 ± 0.151 log2 fold change.

B38: consensus (structured_RNA)
RNA: GGUCACGUCUCAAUCAACUCCCAAAGGUUCUUCUUAGAGCCACCCAUCAACAGCUCGCAGUCAAG
With B38, the binding signal amounted to 2.28 ± 0.146 log2 fold change.

B39: consensus (structured_RNA)
RNA: GGUCACGUCUCAAUCAACUCCCAAAGGUUUUUCUGAAAACCACCCAUCAACAGCUCGCAGUCAAG
Consider B39, for which the binding signal is 2.15 ± 0.131 log2 fold change.

B40: consensus (structured_RNA)
RNA: GGUCACGUCUCAAUCAACUCCCAAAGGUCUUUUUAAGGGCCACCCAUCAACAGCUCGCAGUCAAG
For the molecule B40, the binding signal was found to be 1.43 ± 0.177 log2 fold change.

B41: consensus (structured_RNA)
RNA: GGUCACGUCUCAAUCAACUCCCAAAGGUCCUUUUCAGGACCACCCAUCAACAGCUCGCAGUCAAG
Take B41: the binding signal worked out at 3.59 ± 0.127 log2 fold change.

B42: consensus (structured_RNA)
RNA: GGUCACGUCUCAAUCAACUCCCAAAGGCCUUUUUUAGGGCCACCCAUCAACAGCUCGCAGUCAAG
With B42, the binding signal is 1.9 ± 0.154 log2 fold change.

Values taken from PMC5892938, “SARNAclust: Semi-automatic detection of RNA protein binding motifs from immunoprecipitation data”.
